From the Human Domainome abundance scans (Beltran et al. 2025)

B1: RanBP-type and C3HC4-type zinc finger-containing protein 1, residues 369 to 411; numbered along this chain, Q9BYM8 (parent)
chain: YHCKTPDCKGWCFFEDDVNEFTCPVCFHVNCLLCKAIHEQMNC

Variants of: B1
Experiment: abundance fitness (aPCA) (normalised: wild type 0, dead -1); higher = more abundant; growth selection in yeast, the domain comes from the species named
Conditions: Homo sapiens

Abundance fitness: each site, then its substitutions
K9: S 0.045; Q -0.033; H -0.259; F -0.378; V 0.026; A 0.029; G -0.042; E 0.064; P 0.047; W -0.105; Y -0.485; T 0.056; R 0.036; N -0.19
D7: S -0.165; G 0.057; I -0.812; H -0.2; F -0.245; P -0.615; C -0.656; W -0.469; V -0.597; E 0.034; L -0.2; M -0.202; R -0.117; Q -0.194; K -0.095
C12: V 0.071; G -0.274; R -0.193; S 0.252; L -0.348; Y 0.04; E -0.854
D17: H -0.021; V 0.034; T -0.077; Q 0.142; C -0.215; W -0.133; I -0.265; M -0.256; G 0.116; A -0.038; K 0.079; E 0.06
F13: C -0.111; A 0.124; R 0.092; S 0.066; E 0.428; V -0.235; T -0.084; K -0.084; G -0.279
G10: R -0.66; L -0.945; A -0.541; F -0.346; Y -0.343; E -0.573; V -0.779; H -0.359; K -0.621; N -0.79; D -0.764; M -0.563; P -0.723; S -0.587; T -0.494
V18: D -0.222; E 0.001
T5: E -0.184; P -0.764; H -0.159; S -0.054; G -0.308; V -0.083; Q -0.004; N -0.236; M 0.003; Y -0.169; C -0.063; L -0.004; R -0.099; I -0.533; A -0.131
W11: S 0.132; E 0.184; D -0.162; G -0.172; T 0.176; P -0.529; K 0.023; A -0.006; M 0.191; R 0.036; N 0.063; V 0.116; Y -0.038; C -0.088; L 0.044
E15: Q -0.096; L -0.423; G -0.204; S -0.254; H -0.321; T -0.042; V -0.238; I -0.187; K -0.169; D -0.201; C -0.32; N -0.295; P -0.153
F14: Q -0.295; W 0.075; L 0.243; S -0.165; E -0.082; G 0.162
C8: G -0.691; A -0.761; Q -0.736; V -0.999; F -0.554; R -0.908; M -0.843; D -0.812; E -0.784; S -0.682; L -0.846; W -0.949; T -0.919
P6: H -0.434; S -0.266; C -0.709; M -0.23; L -0.365; I -0.411; D -0.343; F -0.493; A -0.115; Q -0.063; G -0.494; W -0.629; E -0.185
K4: Y -0.084
D16: H -0.045; Q 0.045; E 0.026; T -0.088; V -0.075; C -0.182; W -0.349; I -0.458; K 0.146; L -0.166; M -0.244; N -0.171; G -0.075; P 0.113; S -0.14; R 0.044; A 0.006
